Results on 3 molecules are retold here after patent publication US20170037083A1 (AVIXGEN, published 2017).

Where no end group is shown, it is not given here.

In experiment [1] the target is T1, VEGFR-2 expressed in HUVECs (human, UniProt P35968 20-1356). The experiment can be described thus: cell-based or functional assay.
In another experiment the target is T2, rhVEGFR-2 (human, UniProt P35968 20-764, limits assumed).
T2 construct: Immobilised on the carboxymethylated dextran chip for SPR; also called recombinant human VEGFR-2; VEGF receptor-2
T2 sequence (P35968 20-764 limits assumed): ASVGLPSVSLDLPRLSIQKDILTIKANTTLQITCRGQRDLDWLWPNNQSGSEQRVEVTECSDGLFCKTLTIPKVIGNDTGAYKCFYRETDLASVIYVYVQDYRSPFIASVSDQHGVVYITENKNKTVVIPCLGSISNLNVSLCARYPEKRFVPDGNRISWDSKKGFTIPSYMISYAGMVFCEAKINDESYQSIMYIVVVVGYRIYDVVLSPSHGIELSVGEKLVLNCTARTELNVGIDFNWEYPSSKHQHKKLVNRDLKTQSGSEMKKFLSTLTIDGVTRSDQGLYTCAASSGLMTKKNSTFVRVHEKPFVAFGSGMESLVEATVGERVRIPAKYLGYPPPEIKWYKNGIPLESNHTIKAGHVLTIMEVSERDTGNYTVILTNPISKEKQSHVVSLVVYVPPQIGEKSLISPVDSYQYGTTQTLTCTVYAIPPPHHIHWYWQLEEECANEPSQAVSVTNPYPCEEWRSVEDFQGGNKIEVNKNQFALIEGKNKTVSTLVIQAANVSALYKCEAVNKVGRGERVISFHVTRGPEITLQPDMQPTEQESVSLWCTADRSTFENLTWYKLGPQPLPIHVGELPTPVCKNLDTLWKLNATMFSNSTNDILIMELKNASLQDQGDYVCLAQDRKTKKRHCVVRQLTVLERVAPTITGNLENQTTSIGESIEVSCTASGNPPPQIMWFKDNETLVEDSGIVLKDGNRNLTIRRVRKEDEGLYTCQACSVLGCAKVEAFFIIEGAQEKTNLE
Put plainly: SPR (BIAcore), rhVEGFR-2 immobilised on the chip, RLYE injected. On the procedure: Binding dynamics and affinity of RLYE to rhVEGFR-2 were evaluated with BIAcore AB (Sweden). A carboxymethylated dextran biosensor chip (CMS, BIAcore AB) was activated with 1-ethyl-3-(3-dimethylaminopropyl)carbodiimide and N-hydroxysuccinimide according to the manufacturer's manual. The rhVEGFR-2 (1 ng/μl, 10 mM Hepes, 150 mM NaCl, 3 mM EDTA, 0.005% Tween-20-containing HBS-EP buffer) was injected over the activated CMS chip for fixation. Various concentrations of an RLYE solution was injected over the rhVEGFR-2-fixed center chip with a flow rate of 25 μl/min, and binding and non-binding characteristics between RLYE and the rhVEGFR-2 were analyzed. The peptide bonds were measured in arbitrary response units, and after the injection of each sample (120 sec), the HBS-EP buffer was passed over a sensor surface to monitor dissociation. The equilibrium dissociation constant (Kd) was derived to a fixing step-combined model.
Meanwhile, the interaction between RLYE (SEQ ID NO: 2) and rhVEGFR-2 was examined by SPR analysis.
On the technique in general: Surface plasmon resonance follows binding to a sensor surface in real time, without labels.

A further experiment concerns the target T3, VEGFR-1 (human, UniProt P17948 27-1338).
T3 construct: whole, on cells; In detergent lysate of HUVECs in the pull-down assay; on IM-9 and RPMI 8226 cells and HUVECs in the functional assays; also called VEGF receptor-1
The experiment can be described thus: streptavidin-agarose pull-down from HUVEC lysate with biotin-labeled RLYE, immunoblot for VEGFR-1. How it is done: HUVECs were lysed in a pull-down buffer [50 mM Tris-HCl (pH 8.0), 150 mM sodium chloride, 1.0% NP-40, 0.5% sodium deoxycholate and 0.1% SDS]. A lysate ([…] of proteins) was reacted with biotin-labeled RLYE (0.15 or 1.5 nM) for 1 hour, and reacted with streptavidin-agarose beads ([…]) at 4° C. for 1 hour. RLYE-binding proteins were isolated from the cell lysate through centrifugation, washed, and then boiled for 10 minutes. The bead-binding proteins were isolated by SDS-PAGE, and immunoblotting was performed with an antibody with respect to VEGFR-2 or VEGFR-1.
(§1) Subsequently, it was investigated whether RLYE (SEQ ID NO: 2) interacts with VEGFR-2 expressed in HUVECs. HUVECs were cultured with FITC-RLYE before or after VEGF-A treatment, and FACS was performed to examine an amount of RLYE (SEQ ID NO: 2) binding to the HUVECs. […] To examine binding between RLYE (SEQ ID NO: 2) and VEGF receptors, a pull-down assay was performed. […] Therefore, the binding between RLYE (SEQ ID NO: 2) and VEGFR-2 was identified as a strong bond having a small dissociation coefficient (194 nM), and it was also seen that RLYE (SEQ ID NO: 2) binds to VEGFR-2 at the same positions to which VEGF-A/C binds (immunoglobulin homology domains D2 and D3) (see FIG. 10A).
(In general: A western blot detects proteins with antibodies after separation by electrophoresis.)

In experiment [2] the target is T1, VEGFR-2 expressed in HUVECs. The experiment can be described thus: flow cytometry (FACS) on HUVECs, FITC-RLYE 15 nM, VEGF-A 100 ng/ml added before or after. How it is done:
HUVECs were cultured in a 60-mm culture plate for 24 hours. The cells were isolated from the plate with 5 mM EDTA-containing phosphate-buffered saline (PBS), washed with PBS three times, and suspended in 2% FBS/0.1% bovine serum albumin-containing PBS. Afterward, before or after the reaction with FITC-conjugated RLYE (15 nM), the cells were treated with VEGF (100 ng/ml), stored on ice for 30 minutes, fixed in 2% paraformaldehyde, and assessed with a fluorescence activated cell sorter (FACS Calibur, Becton Dickinson) by flow cytometry.
as §1
On the technique in general: A flow cytometer gives signals particle by particle.

T1 sequence (P35968 20-1356): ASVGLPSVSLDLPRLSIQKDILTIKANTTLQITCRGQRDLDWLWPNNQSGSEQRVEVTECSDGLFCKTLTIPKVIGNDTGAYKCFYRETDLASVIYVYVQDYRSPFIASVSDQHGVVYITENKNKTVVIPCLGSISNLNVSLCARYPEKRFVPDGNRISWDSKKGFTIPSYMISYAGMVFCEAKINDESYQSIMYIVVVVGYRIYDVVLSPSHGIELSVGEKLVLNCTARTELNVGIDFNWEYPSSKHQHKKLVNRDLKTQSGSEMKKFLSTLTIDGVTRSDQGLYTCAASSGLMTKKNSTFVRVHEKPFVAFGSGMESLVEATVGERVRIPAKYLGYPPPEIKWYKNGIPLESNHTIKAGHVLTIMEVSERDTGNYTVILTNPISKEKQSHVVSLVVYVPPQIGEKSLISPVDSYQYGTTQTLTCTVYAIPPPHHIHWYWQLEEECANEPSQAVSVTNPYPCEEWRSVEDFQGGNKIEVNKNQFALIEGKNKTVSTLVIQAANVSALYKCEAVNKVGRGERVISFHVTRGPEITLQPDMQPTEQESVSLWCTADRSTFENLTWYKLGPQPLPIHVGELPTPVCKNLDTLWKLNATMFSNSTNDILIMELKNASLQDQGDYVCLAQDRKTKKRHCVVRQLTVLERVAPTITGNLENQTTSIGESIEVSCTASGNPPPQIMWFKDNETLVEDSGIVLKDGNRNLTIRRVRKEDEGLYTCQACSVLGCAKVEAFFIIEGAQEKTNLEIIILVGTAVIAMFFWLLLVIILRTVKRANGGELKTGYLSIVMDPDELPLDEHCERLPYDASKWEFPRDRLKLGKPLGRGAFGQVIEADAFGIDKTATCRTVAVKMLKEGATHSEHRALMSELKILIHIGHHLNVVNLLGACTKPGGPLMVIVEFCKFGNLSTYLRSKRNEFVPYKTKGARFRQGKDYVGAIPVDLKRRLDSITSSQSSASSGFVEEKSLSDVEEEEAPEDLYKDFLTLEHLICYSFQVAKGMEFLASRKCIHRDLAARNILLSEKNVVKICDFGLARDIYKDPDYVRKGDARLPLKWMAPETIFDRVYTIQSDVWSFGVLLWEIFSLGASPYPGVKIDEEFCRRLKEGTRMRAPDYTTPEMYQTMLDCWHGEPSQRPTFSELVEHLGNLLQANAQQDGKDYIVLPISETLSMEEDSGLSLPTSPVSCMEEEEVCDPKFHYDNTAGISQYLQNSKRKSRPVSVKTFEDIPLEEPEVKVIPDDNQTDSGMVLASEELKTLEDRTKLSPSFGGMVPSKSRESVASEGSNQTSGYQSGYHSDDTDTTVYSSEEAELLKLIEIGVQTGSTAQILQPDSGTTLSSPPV
T3 sequence (P17948 27-1338): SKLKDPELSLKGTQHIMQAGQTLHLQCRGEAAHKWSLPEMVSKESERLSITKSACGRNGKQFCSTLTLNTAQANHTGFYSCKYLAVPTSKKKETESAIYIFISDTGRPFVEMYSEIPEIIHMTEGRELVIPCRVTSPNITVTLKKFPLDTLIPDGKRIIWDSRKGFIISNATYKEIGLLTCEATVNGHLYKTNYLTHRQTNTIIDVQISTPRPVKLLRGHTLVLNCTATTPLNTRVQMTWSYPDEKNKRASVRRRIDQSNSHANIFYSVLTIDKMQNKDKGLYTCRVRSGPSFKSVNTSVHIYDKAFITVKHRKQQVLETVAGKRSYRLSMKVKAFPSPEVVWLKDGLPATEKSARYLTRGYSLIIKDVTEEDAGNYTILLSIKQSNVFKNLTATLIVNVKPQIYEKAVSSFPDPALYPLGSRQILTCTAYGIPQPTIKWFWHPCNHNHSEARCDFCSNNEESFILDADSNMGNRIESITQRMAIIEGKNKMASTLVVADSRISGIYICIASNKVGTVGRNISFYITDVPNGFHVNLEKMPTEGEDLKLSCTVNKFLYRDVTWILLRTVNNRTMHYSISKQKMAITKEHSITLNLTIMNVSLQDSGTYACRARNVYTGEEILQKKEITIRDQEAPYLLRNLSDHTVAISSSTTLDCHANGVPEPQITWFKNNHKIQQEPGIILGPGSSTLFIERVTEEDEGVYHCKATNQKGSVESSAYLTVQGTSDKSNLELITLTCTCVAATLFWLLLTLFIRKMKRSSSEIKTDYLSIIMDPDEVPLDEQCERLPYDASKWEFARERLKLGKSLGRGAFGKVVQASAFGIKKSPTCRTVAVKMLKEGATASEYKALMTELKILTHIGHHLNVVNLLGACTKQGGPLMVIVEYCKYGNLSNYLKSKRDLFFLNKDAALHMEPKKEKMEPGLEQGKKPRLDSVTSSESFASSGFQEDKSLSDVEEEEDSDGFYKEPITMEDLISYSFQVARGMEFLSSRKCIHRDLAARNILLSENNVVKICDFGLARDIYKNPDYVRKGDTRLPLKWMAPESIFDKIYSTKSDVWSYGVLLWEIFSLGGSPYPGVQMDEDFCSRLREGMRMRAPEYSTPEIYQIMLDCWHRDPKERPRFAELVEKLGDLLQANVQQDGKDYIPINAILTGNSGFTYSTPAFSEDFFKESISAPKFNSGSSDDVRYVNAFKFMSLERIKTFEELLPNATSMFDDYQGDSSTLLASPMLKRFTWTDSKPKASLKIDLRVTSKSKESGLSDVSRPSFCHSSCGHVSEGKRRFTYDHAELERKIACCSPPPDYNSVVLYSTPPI

B1: RLYE peptide (SEQ ID NO: 2) (peptide)
peptide: RLYE
notes: Unlabelled synthetic tetrapeptide, analyte in the SPR assay and used in the cell assays
A word on the Kd: it is the concentration at which binding is half-saturated. The low end stands for higher affinity, the high end for lower affinity. As for B1, in experiment [1], the “IC50 of VEGF-induced HUVEC migration (transwell)” value came out at 0.06 nM and the “IC50 of VEGF-induced HUVEC proliferation ([3H]-thymidine incorporation)” value worked out at 0.08 nM. This molecule showed a Kd in the experiment with rhVEGFR-2 of 9000 nM.

B2: biotin-labeled RLYE (peptide)
peptide: RLYE
modifications: also: biotin-labeled, site not given here
notes: Used at 0.15 or 1.5 nM in the pull-down from HUVEC lysate with streptavidin-agarose beads; also called biotinylated RLYE peptide
Turning to B2, the binding result in the experiment with VEGFR-1 is “no binding”.

B3: FITC-conjugated RLYE (peptide)
peptide: RLYE
modifications: also: FITC-conjugated, site not given here
notes: Used at 15 nM in FACS and at 100 ng/ml in confocal microscopy on HUVECs; also called FITC-RLYE
As for B3, the binding result in experiment [2] was “binds”.
